According to PMC4329188, “Expression, purification, crystallization, and preliminary X-ray crystallographic studies of the human adiponectin receptors, AdipoR1 and AdipoR2” (Journal of Structural and Functional Genomics, 2015):

Biological target: T1, purified AdipoR1Δ88 (human adiponectin receptor 1, residues 89–375), as used for SPR and antibody screening (human, UniProt Q96A54 89-375)
T1 construct: adiponectin receptor 1 (AdipoR1), human, residues 89-375 (N-terminally truncated mutant Δ88); Same construct as m1; SDS-denatured in the dot blot; source: Trichoplusia ni (High Five) insect cells, baculovirus; purified; reconstituted into liposomes for SPR and ELISA
T1 sequence (looked up): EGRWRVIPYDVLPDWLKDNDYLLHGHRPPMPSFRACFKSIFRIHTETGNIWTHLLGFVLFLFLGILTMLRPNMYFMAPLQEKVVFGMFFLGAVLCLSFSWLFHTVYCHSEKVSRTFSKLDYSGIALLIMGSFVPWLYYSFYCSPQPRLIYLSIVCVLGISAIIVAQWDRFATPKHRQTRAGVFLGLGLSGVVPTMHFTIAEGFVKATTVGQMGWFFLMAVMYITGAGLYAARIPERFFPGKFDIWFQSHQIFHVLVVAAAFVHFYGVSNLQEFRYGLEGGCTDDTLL
Assay: SPR; purified AdipoR1Δ88 reconstituted into liposomes (egg yolk PC, biotinyl-PE) and immobilised on a sensor chip SA; osmotin 0.5–8 μM as analyte; Biacore T200
Conditions: both partners purified

Kd: 0.7 µM
B1: osmotin (ligand)
chain: ATIEVRNNCPYTVWAASTPIGGGRRLDRGQTWVINAPRGTKMARVWGRTNCNFNAAGRGTCQTGDCGGVLQCTGWGKPPNTLAEYALDQFSGLDFWDISLVDGFNIPMTFAPTNPSGGKCHAIHCTANINGECPRELRVPGGCNNPCTTFGGQQYCCTQGPCGPTFFSKFFKQRCPDAYSYPQDDPTSTFTCPGGSTNYRVIFCPNGQAHPNFPLEMPGSDEVAK
